Experimental data published in patent US20200121803A1 (published 2020).
Where a chain is given by its changes, count along the chain named.

T1: human CD98, endogenously expressed on Molt-4 human acute lymphoblastic leukemia cells (human)
T1 chain: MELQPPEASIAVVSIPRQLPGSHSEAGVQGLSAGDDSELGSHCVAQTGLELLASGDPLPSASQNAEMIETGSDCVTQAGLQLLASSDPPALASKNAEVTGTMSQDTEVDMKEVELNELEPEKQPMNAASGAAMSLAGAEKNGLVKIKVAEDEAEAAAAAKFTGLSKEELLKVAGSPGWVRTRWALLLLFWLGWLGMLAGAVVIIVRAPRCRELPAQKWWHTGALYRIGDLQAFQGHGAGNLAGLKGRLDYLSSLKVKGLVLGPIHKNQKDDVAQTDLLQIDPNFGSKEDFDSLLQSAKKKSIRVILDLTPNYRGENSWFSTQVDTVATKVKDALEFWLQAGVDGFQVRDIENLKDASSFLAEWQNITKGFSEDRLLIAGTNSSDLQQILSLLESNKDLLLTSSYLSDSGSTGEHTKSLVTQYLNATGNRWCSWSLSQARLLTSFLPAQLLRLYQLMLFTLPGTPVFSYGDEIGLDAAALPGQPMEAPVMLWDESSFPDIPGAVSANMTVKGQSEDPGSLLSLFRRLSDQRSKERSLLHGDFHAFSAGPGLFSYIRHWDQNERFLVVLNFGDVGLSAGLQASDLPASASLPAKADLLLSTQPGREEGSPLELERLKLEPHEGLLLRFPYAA

T2: human CD98 on the cell surface (human)
T2 chain: T1 chain

B1: CD98 (CL-huAb110)-ZZ (antibody, human IgG1, kappa, L234A L235A, V domains shown)
VH: EVQLVQSGAEVKKPGASVKVSCKASGFTFSDYTMAWVRQAPGQGLEWVATIIYDARGTYYRDAVKGRFTITRDNSTSTLYLELSSLRSEDTAVYYCARQSDDTYYYWGYFDYWGQGTMVTVSS
VL: DIVMTQTPLSLPVTPGEPASINCKSSQSLLFSGNQKNYLAWYLQKPGQSPQLLIYWASTRQSGVPDRFSGSGSGTDFTLKISRVEAEDVGIYYCQQYYSSPYTFGQGTKLEIKR
modifications: synthon ZZ on reduced cysteine (see heavy chain); Bcl-xL inhibitor synthon ZZ on cysteines freed by TCEP reduction (Method G); DAR 1.0 by MS for the whole ADC
B2: CD98 (CL-huAb110)-SR (antibody, human IgG1, kappa, L234A L235A, V domains shown)
VH: B1 VH
VL: B1 VL
modifications: synthon SR on reduced cysteine (see heavy chain); Bcl-xL inhibitor synthon SR on cysteines freed by TCEP reduction (Method A); DAR printed as '.0.7' by MS for the whole ADC
B3: CD98 (CL-huAb104)-SE (antibody, human IgG1, kappa, L234A L235A, V domains shown)
VH: EVQLVESGGGLVQPGGSLRLSCATSGFTFIDYYMSWVRQAPGKGLEWLGFIRNKAYGYTTEYSASVKGRFTISRDNSKSILYLQMNSLKTEDTAVYYCTRDRPAWFVYWGQGTLVTVSS
VL: B1 VL with N22S, F31Y, G33S, Q61E, I91V, S100Y, Q106G, L110V
modifications: synthon SE on reduced cysteine (see heavy chain); Bcl-xL inhibitor synthon SE on cysteines freed by TCEP reduction (Method A); DAR 2.4 by MS for the whole ADC
B4: CD98 (CL-huAb102)-SE (antibody, human IgG1, kappa, L234A L235A, V domains shown)
VH: B3 VH with Y56N, G57R
VL: B1 VL with N22S, F31Y, G33S, Q61E, I91V, S100Y, Q106G, L110V
modifications: synthon SE on reduced cysteine (see heavy chain); Bcl-xL inhibitor synthon SE on cysteines freed by TCEP reduction (Method A); DAR 2.2 by MS for the whole ADC
B5: CD98 (CL-huAb104)-YG (antibody, human IgG1, kappa, L234A L235A, V domains shown)
VH: B3 VH
VL: B1 VL with N22S, F31Y, G33S, Q61E, I91V, S100Y, Q106G, L110V
modifications: synthon YG on reduced cysteine (see heavy chain); Bcl-xL inhibitor synthon YG on cysteines freed by TCEP reduction (Method E); DAR 1.3 by MS for the whole ADC
B6: CD98 (CL-huAb104)-SR (antibody, human IgG1, kappa, L234A L235A, V domains shown)
VH: B3 VH
VL: B1 VL with N22S, F31Y, G33S, Q61E, I91V, S100Y, Q106G, L110V
modifications: synthon SR on reduced cysteine (see heavy chain); Bcl-xL inhibitor synthon SR on cysteines freed by TCEP reduction (Method A); DAR 2.2 by MS for the whole ADC
B7: CD98 (CL-huAb102)-KZ (second row with this label, r76, DAR 2.2) (antibody, human IgG1, kappa, L234A L235A, V domains shown)
VH: B3 VH with Y56N, G57R
VL: B1 VL with N22S, F31Y, G33S, Q61E, I91V, S100Y, Q106G, L110V
modifications: synthon KZ on reduced cysteine (see heavy chain); Bcl-xL inhibitor synthon KZ on cysteines freed by TCEP reduction (Method A); DAR 2.2 by MS for the whole ADC
B8: CD98 (CL-huAb104)-KZ (antibody, human IgG1, kappa, L234A L235A, V domains shown)
VH: B3 VH
VL: B1 VL with N22S, F31Y, G33S, Q61E, I91V, S100Y, Q106G, L110V
modifications: synthon KZ on reduced cysteine (see heavy chain); Bcl-xL inhibitor synthon KZ on cysteines freed by TCEP reduction (Method A); DAR 2.6 by MS for the whole ADC
B9: CD98 (CL-huAb110)-XW (antibody, human IgG1, kappa, L234A L235A, V domains shown)
VH: B1 VH
VL: B1 VL
modifications: synthon XW on reduced cysteine (see heavy chain); Bcl-xL inhibitor synthon XW on cysteines freed by TCEP reduction (Method G); DAR 3.2 by MS for the whole ADC
B10: CD98 (CL-huAb102)-YG (antibody, human IgG1, kappa, L234A L235A, V domains shown)
VH: B3 VH with Y56N, G57R
VL: B1 VL with N22S, F31Y, G33S, Q61E, I91V, S100Y, Q106G, L110V
modifications: synthon YG on reduced cysteine (see heavy chain); Bcl-xL inhibitor synthon YG on cysteines freed by TCEP reduction (Method E); DAR 1.1 by MS for the whole ADC
B11: CD98 (CL-huAb104)-XW (antibody, human IgG1, kappa, L234A L235A, V domains shown)
VH: B3 VH
VL: B1 VL with N22S, F31Y, G33S, Q61E, I91V, S100Y, Q106G, L110V
modifications: synthon XW on reduced cysteine (see heavy chain); Bcl-xL inhibitor synthon XW on cysteines freed by TCEP reduction (Method G); DAR 3.1 by MS for the whole ADC
B12: CD98 (CL-huAb102)-XW (antibody, human IgG1, kappa, L234A L235A, V domains shown)
VH: B3 VH with Y56N, G57R
VL: B1 VL with N22S, F31Y, G33S, Q61E, I91V, S100Y, Q106G, L110V
modifications: synthon XW on reduced cysteine (see heavy chain); Bcl-xL inhibitor synthon XW on cysteines freed by TCEP reduction (Method G); DAR 2.8 by MS for the whole ADC
B13: CD98 (CL-huAb110)-YG (antibody, human IgG1, kappa, L234A L235A, V domains shown)
VH: B1 VH
VL: B1 VL
modifications: synthon YG on reduced cysteine (see heavy chain); Bcl-xL inhibitor synthon YG on cysteines freed by TCEP reduction (Method E); DAR 2.8 by MS for the whole ADC
B14: CD98 (CL-huAb108)-XW (antibody, human IgG1, kappa, L234A L235A, V domains shown)
VH: B1 VH with D54S, A55G
VL: B1 VL with S99D, S100V
modifications: synthon XW on reduced cysteine (see heavy chain); Bcl-xL inhibitor synthon XW on cysteines freed by TCEP reduction (Method G); DAR 3.5 by MS for the whole ADC
B15: CD98 (CL-huAb110)-SE (antibody, human IgG1, kappa, L234A L235A, V domains shown)
VH: B1 VH
VL: B1 VL
modifications: synthon SE on reduced cysteine (see heavy chain); Bcl-xL inhibitor synthon SE on cysteines freed by TCEP reduction (Method A); DAR 1.9 by MS for the whole ADC
B16: CD98 (CL-huAb102)-SR (antibody, human IgG1, kappa, L234A L235A, V domains shown)
VH: B3 VH with Y56N, G57R
VL: B1 VL with N22S, F31Y, G33S, Q61E, I91V, S100Y, Q106G, L110V
modifications: synthon SR on reduced cysteine (see heavy chain); Bcl-xL inhibitor synthon SR on cysteines freed by TCEP reduction (Method A); DAR 2.1 by MS for the whole ADC
B17: CD98 (CL-huAb102)-KZ (antibody, human IgG1, kappa, L234A L235A, V domains shown)
VH: B3 VH with Y56N, G57R
VL: B1 VL with N22S, F31Y, G33S, Q61E, I91V, S100Y, Q106G, L110V
modifications: synthon KZ on reduced cysteine (see heavy chain); Bcl-xL inhibitor synthon KZ on cysteines freed by TCEP reduction (Method A); DAR 2.8 by MS for the whole ADC
B18: ChAb1-CZ (other)
VH: EVKLVESGGGLVQPGGSLRLSCATSGFTFTDYYMSWVRQPPGKALEWLGFIRNPANVYTTEYSASVKGRFTISRDNSQSILYLQMNTLRAEDSATYYCARASYGNSEGWFAYWGQGTLVTVSA
VL: DIVMSQSPSSLAVSVGEKVTMSCKSSQNLLYNNNQKNYLAWYQQKPGQSPKLLIYWASTRESGVPDRFTGSGSGTDFTLTISSVKAEDLAVYYCQQYYSYPRTFGGGTKLEIK
modifications: synthon CZ on reduced interchain Cys of the constant regions (sites not numbered)
B19: ChAb3-CZ (other)
VH: EVKLVESGGGLVQPGNSLRLSCATSGFTFIDYYMSWVRQSPGKALEWLGFIRNKANGYTTEYSASVKGRFTISRDNSQSILYLQMDTLRAEDSATYYCTRDRPAWFVYWGQGTLVTVSA
VL: B18 VL with N28S, N32S, N33S, I81F, K85R, R102Y
modifications: synthon CZ on reduced interchain Cys of the constant regions (sites not numbered)
B20: ChAb5-CZ (other)
VH: B18 VH with S35T, P54K, V57G, Q78L, G104V
VL: B18 VL with N28S, N32S, N33S, P46L, Q96H
modifications: synthon CZ on reduced interchain Cys of the constant regions (sites not numbered)
B21: ChAb8-CZ (other)
VH: EVQLVESGGGLVQPGRSLKLSCAASGFTFSDYAMAWVRQAPKKGLEWVASIIYDGRGTYYRDSVKGRFTISRDNAKSTLYLQMDSLRSEDTATYYCARQGDGTYYYWGYFDYWGQGVMVTVSS
VL: DIVMTQSPSSLAVSAGETVTINCKSSQSLLSSGNQKNYLAWYQQKPGQSPKLLIYWASTRQSGVPDRFIGSGSGTDFTLTINSVQAEDLAIYYCQQYYDTPYTFGAGTKLELK
modifications: synthon CZ on reduced interchain Cys of the constant regions (sites not numbered)
B22: ChAb10-CZ (other)
VH: B21 VH with G44S, S50T, Y60C, Y105H
VL: B21 VL with N82S, L110V, E111D
modifications: synthon CZ on reduced interchain Cys of the constant regions (sites not numbered)

Experiments:
[1] = target: T1, human CD98, endogenously expressed on …; assay: cell-based or functional assay
[2] = target: T2, human CD98 on the cell surface; assay: cell-based or functional assay

| Binder | % Cell Viability at 50 nM (Molt-4) [1] | Molt4 IC50 (nM), 50% inhibition of cell proliferation, 72 h, ATPlite [1] | ADC potency, IC50 (nM), H146 (SCLC) growth inhibition [2] | ADC potency, IC50 (nM), H2170 (NSCLC) growth inhibition [2] | ADC potency, IC50 (nM), MOLT4 (leukemia) growth inhibition [2] |
| --- | --- | --- | --- | --- | --- |
| B1 | 4.3% | 0.252 nM | – | – | – |
| B2 | 11% | 0.332 nM | – | – | – |
| B3 | 17.1% | 0.149 nM | – | – | – |
| B4 | 19.7% | 0.107 nM | – | – | – |
| B5 | 25.3% | 2.67 nM | – | – | – |
| B6 | 2.7% | 0.045 nM | – | – | – |
| B7 | 16.2% | 0.35 nM | – | – | – |
| B8 | 21.2% | 0.089 nM | – | – | – |
| B9 | 19.6% | 0.308 nM | – | – | – |
| B10 | 31.9% | 1.21 nM | – | – | – |
| B11 | 31.1% | 0.102 nM | – | – | – |
| B12 | 32% | 0.074 nM | – | – | – |
| B13 | 10% | 0.493 nM | – | – | – |
| B14 | 20.9% | 0.281 nM | – | – | – |
| B15 | 5.7% | 0.502 nM | – | – | – |
| B16 | 12.7% | 0.03 nM | – | – | – |
| B17 | 20.7% | 0.062 nM | – | – | – |
| B18 | – | – | ~0.196 nM | 0.276 nM | 0.071 nM |
| B19 | – | – | 0.255 nM | ~0.171 nM | 0.026 nM |
| B20 | – | – | ~0.188 nM | 0.161 nM | 0.029 nM |
| B21 | – | – | 0.094 nM | 0.112 nM | 0.038 nM |
| B22 | – | – | 0.209 nM | 0.09 nM | 0.035 nM |
